The target in one test is Bcat-Halo (UniProt P35222). Nature of the test: NanoBRET in HEK293 cells, B-cat-Halo/TCF4-Luc, absolute IC50.
In test [1] the target is full-length beta-Catenin (Uniprot ID P35222) (Homo sapiens (Human)) (UniProt P35222). Put plainly: fluorescence polarization competition against 5FAM TCF4 10-53 probe.

Here are results for one molecule from US20240116985A1, “STAPLED PEPTIDES AND METHODS THEREOF” (priority 2020, published 2024).

Starred links: 1 amine or outer side, 2 acyl side, 3 side chain; linkers in the order of their positions; H or OH if unused. Positions of bridges follow the written chain, without caps; N, C: chain ends. Non-standard residues stand in square brackets, D forms with d. Primed or numbered codes have the meaning given here. *: point of attachment. PyrS2 = (S)-3-amino-1-((pent-4-en-1-yloxy)carbonyl)pyrrolidine-3-carboxylic acid, C=CCCCOC(=O)N1CC[C@@](N[*:1])(C(=O)[*:2])C1; B5(3) = 2,2-bis(4-pentenyl)glycine (stitching residue), C=CCCCC(CCCC=C)(N[*:1])C(=O)[*:2]; 4pentenyl = N-terminal pent-4-enoic acid (acyl cap), C=CCCC(=O)*; Bta = N[C@@H](Cc1csc2ccccc12)C(=O)O; 3Thi = N[C@@H](Cc1ccsc1)C(=O)O A value given as a limit tells only on which side of the number the result lay.

The term IC50 denotes the concentration at which inhibition is half-maximal.

Bcat-Halo, sequence (P35222 whole entry): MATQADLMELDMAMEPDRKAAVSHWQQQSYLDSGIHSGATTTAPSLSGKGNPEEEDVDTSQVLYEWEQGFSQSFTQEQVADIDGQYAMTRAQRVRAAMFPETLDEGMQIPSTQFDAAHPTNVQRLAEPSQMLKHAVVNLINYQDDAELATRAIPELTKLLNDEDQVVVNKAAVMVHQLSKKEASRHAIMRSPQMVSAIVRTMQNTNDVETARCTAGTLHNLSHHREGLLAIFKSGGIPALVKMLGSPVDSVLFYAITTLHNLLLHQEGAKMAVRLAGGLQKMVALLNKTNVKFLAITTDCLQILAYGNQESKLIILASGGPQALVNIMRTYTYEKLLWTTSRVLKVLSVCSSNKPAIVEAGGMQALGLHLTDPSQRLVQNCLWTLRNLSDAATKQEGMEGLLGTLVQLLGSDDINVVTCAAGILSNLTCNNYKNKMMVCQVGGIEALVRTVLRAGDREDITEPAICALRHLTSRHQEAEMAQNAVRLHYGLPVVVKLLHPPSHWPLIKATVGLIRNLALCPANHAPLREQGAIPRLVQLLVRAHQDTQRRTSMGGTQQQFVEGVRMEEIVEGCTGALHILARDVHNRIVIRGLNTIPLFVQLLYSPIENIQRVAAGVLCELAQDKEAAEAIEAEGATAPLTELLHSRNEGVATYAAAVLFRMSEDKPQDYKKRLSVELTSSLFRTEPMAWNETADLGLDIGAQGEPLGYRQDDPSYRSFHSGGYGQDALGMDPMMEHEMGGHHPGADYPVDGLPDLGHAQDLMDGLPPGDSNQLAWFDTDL
full-length beta-Catenin (Uniprot ID P35222) (Homo sapiens (Human)), sequence (P35222 whole entry, one chain of several): as the sequence (P35222 whole entry) above

B1: I-2599 (peptide)
peptide: 4pentenyl-XD[B5(3)]ADDAAF[PyrS2]L[3Thi][Bta]Q-NH2
modifications: staple 3-10; staple (positions not given here); not fully specified (residue 1, bridges); printed as 4pentenyl-MePro-Asp-B5-Ala-Asp-Asp-Ala-Ala-Phe-PyrS2-Leu-3Thi-BztA-Gln-NH2
Regarding B1, the IC50 with Bcat-Halo is more than 20 µM; in test [1], 0.234 µM.
